The results in this text go back to patent EP4714971A1 (Shanghai Hansoh Biomedical Co., Ltd., dated 2024).

Read-outs that look alike come from different tables or passages of the source.

The target of assay [1] is T1, SEZ6L2-Fc (human, UniProt Q6UXD5 28-844, limits assumed).
T1 construct: The construct is not described beyond its name; also called SEZ6L2 protein; Human SEZ6L2; not shown: Fc
The experiment in a line: ELISA, coated Fc fusion protein at 1 ug/mL. (In an ELISA, binding on a coated surface is turned into a signal by an enzyme label.)

Assay [2] deals with T2, human SEZ6 expressed on stably transfected CHO-K1 cells (human, UniProt Q53EL9 20-994).
T2 construct: also called CHO-SEZ6; hSEZ6
T2 sequence: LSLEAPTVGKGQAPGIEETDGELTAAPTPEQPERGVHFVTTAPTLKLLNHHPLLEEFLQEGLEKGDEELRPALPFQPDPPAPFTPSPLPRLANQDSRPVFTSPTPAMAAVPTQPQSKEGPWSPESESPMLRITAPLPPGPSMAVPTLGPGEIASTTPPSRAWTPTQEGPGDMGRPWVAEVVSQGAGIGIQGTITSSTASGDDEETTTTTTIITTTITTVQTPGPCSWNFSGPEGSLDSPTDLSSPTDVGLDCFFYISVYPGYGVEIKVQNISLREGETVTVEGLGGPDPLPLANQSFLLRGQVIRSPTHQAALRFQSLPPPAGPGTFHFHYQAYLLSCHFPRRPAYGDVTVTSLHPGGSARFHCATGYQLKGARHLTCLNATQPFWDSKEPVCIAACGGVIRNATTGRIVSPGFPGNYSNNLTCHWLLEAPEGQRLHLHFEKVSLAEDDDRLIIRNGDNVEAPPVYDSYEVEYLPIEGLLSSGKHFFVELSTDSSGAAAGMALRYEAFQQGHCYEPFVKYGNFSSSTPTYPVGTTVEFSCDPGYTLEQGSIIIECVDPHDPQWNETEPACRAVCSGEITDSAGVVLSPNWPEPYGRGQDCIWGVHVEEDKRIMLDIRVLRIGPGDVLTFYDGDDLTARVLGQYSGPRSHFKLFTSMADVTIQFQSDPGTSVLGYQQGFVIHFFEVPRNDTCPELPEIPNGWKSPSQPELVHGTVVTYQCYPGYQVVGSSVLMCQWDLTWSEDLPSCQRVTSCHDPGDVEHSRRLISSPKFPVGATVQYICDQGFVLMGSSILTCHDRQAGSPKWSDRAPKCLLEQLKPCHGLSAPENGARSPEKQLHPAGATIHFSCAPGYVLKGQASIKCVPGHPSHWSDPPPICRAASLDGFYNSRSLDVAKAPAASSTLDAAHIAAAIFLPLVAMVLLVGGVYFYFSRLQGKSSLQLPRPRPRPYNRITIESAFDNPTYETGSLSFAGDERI
The experiment in a line: flow cytometry on CHO-K1 cells expressing human SEZ6.

Assay [3] deals with T2, human SEZ6 expressed on stably …. Described as above. This is another data set of the same source.
Assay [4] addresses T3, cynomolgus monkey SEZ6 expressed on stably transfected CHO-K1 cells (cynomolgus monkey, UniProt Q53EL9 20-994 (human entry)).
T3 construct: also called CHO-cynoSEZ6; monkey SEZ6 on the cell membrane
T3 chain: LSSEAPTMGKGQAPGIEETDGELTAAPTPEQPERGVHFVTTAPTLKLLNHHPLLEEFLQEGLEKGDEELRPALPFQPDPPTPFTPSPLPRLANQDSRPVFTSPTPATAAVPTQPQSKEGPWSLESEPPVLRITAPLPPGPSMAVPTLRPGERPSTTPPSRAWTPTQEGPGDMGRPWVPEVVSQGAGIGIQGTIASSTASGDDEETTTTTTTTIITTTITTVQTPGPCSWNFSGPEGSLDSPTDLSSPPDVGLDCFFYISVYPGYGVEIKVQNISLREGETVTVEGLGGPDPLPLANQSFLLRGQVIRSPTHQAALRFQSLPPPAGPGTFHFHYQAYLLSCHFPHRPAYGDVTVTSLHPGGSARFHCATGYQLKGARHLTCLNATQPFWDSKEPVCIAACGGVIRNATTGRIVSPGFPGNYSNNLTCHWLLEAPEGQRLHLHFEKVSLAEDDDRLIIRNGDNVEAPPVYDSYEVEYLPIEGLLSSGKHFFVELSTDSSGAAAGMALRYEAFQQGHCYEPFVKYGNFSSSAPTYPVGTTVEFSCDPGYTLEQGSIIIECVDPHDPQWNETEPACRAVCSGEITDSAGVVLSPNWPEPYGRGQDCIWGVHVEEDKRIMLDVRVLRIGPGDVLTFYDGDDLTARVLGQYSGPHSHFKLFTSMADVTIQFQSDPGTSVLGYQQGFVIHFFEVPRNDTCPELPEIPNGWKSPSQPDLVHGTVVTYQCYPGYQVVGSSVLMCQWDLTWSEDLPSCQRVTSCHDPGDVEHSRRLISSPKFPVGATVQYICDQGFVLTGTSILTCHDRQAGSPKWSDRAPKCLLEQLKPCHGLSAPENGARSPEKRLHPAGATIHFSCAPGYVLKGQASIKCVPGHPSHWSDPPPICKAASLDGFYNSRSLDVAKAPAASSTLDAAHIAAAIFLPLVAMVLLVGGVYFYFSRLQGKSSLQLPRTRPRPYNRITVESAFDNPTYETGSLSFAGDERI
The experiment in a line: flow cytometry on CHO-K1 cells expressing cynomolgus monkey SEZ6.

T1 sequence (Q6UXD5 28-844 limits assumed): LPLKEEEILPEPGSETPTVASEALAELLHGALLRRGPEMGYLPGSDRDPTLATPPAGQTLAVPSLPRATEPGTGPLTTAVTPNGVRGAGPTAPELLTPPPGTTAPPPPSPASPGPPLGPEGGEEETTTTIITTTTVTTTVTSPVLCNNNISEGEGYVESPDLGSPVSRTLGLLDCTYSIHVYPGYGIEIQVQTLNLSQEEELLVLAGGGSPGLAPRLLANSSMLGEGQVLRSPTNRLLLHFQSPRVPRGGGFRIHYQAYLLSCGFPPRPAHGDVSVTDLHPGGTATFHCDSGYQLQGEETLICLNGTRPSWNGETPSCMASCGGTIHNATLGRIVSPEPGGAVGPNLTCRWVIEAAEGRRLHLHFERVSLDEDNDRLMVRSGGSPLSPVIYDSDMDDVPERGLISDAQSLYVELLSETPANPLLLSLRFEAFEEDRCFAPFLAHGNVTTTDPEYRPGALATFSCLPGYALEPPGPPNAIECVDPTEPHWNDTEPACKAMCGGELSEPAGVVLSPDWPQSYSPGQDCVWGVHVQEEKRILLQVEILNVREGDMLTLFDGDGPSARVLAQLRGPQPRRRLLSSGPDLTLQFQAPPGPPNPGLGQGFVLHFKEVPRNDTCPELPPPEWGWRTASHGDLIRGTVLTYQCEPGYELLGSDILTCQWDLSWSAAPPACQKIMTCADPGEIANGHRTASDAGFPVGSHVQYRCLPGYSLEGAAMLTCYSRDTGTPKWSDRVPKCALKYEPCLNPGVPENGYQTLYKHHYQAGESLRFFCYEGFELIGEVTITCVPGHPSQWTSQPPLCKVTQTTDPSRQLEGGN

B1: PR3178 (antibody, human IgG1, kappa, V domains shown)
VH: QVQLVQSGAEVKKPGASVKVSCKASGYTFTDYEMHWVRQAPGQGLEWMGGIDPESDNTVYNQKFKGRVTLTEDTSTSTAYMELRSLRSEDTAVYYCTRGDWYFDVWGQGTTVTVSS
VL: DIVMTQSPDSLAVSLGERATINCKSSQSLLNSRTRENYLAWYQQKPGQPPKLLIYWASTRESGVPDRFSGSGSGTDFTLTISSLQAEDVAVYYCGQSYNLFTFGQGTKLEIKR
notes: Humanized, human IgG1, kappa; also called humanized antibody of cAb3009
Regarding B1, the binding result in assay [1] is on record as “no binding (tested: 10 nM)”.

B2: hSC200 (hSC17.200) (antibody, human IgG1, kappa, V domains shown)
VH: EVQLVQSGAEVKKPGESLKISCKGSGYSFTSSWINWVRQMPGKGLEWMGRIYPGEGDTNYNGNFEGQVTISADKSISTAYLQWSSLKASDTAMYYCTRGLVMDYWGQGTLVTVSS
VL: EIVLTQSPATLSLSPGERATLSCRASQSVDYNGISYMHWYQQKPGQAPRLLIYAASNVQSGIPARFSGSGSGTDFTLTISSLEPEDFAVYYCQQSIEDPPTFGGGTKVEIKR
notes: also called control molecule; control antibody
What is called EC50 is the concentration giving half of the maximal effect. On to B2, for which the EC50 in assay [2] stood at 0.19 nM; in assay [3] it was 0.66 nM; in assay [4] it was 0.26 nM. In assay [3], this molecule gave an MFImax of 3300.
